Measurements published in US20230287087A1 (MAX PLANCK GESELLSCHAFT ZUR F RDERUNG DER WISSENSCHAFTEN E V, published 2023).

How the values were obtained:
[1] = biological target: B.1.617.2/Delta RBD (40592-V08H90, Sino Biologicals) (SARS-CoV-2, UniProt P0DTC2 319-541); assay: BLI, biotinylated VHH on streptavidin sensor, RBD in solution
[2] = biological target: T1, SARS-CoV-2 spike receptor-binding domain (RBD), wild type (SARS-CoV-2, UniProt P0DTC2 319-541); assay: as above
[3] = biological target: T1, SARS-CoV-2 spike receptor-binding …; assay: method not stated
[4] = biological target: South African RBD mutant (K417N, E484K, N501Y) (SARS-CoV-2, UniProt P0DTC2 319-541); assay: BLI
[5] = biological target: Brazilian RBD mutant (K417T, E484K, N501Y) (SARS-CoV-2, UniProt P0DTC2 319-541); assay: BLI
[6] = biological target: Californian RBD mutant (L452R) (SARS-CoV-2, UniProt P0DTC2 319-541); assay: BLI
[7] = biological target: Spike protein of patient-derived SARS-CoV-2 (D614G) (SARS-CoV-2, UniProt P0DTC2 14-1273); assay: cell-based or functional assay

B1: Re6H06 (VHH)
VHH: QVQLVESGGGLVQPGGSLRLSCAASGVTLDYYAIGWFRQAPGKEREGVSCTSSSDGSTYYADSVKGRFTISRDNAKNTVYLQMNSLKPEDTGVYYCAVVPQTYYGGKYYSQCTANGMDYWGKGTLVTVSS
Question: How did the Kd [1] turn out when B1 was run?
Answer: ≤ 0.01 nM

Question: What about the Kd [2] of the same binder?
Answer: ≤ 0.01 nM

Question: What about the Kd [3] of the same binder?
Answer: ≤ 0.001 nM

Question: What about the Kd [4] of the same binder?
Answer: ≤ 0.01 nM

Question: What about the Kd [5] of the same binder?
Answer: ≤ 0.01 nM

Question: And the Kd [6]?
Answer: 0.05 nM

Question: And the “Lowest SARS-COV-2-neutralizing concentration” value [7]?
Answer: 50 pM
